Assay results taken from patent publication US20060003399A1, “High throughput actin polymerization assay” (Cytokinetics, Inc., priority 2004, published 2006).

How the values were obtained:
Assay in all cases: cell-based or functional assay
[1] = molecular target: Arp2/3 complex (human) (UniProt P61158)
[2] = molecular target: Actin (G-actin with pyrene-actin) (chicken)
[3] = molecular target: Full length human N-WASP, TAP-tagged at the C-terminus (Myc-N-WASP-TAP) (human)
[4] = molecular target: Full length human WASP, TAP-tagged at the C-terminus (Myc-WASP-TAP) (human)

## Full length human WASP, TAP-tagged at the C-terminus (Myc-WASP-TAP)
[1]
  activity relative to 105 WASP (fold against 105 WASP): 20
  concentration giving maximal concentration of barbed ends (500 nM Cdc42, 2.5 nM Arp2/3, 3.5 uM actin): 3 nM
  potency relative to the VCA/WA domain (fold against VCA/WA domain): > 70

## GST tagged C. albicans FH1-FH2 domain (from UniProt Q5AL52 972-1598)
[2]
  lag phase of actin polymerization at 100 nM formin: < 100 s
  time to saturation phase of actin polymerization at 100 nM formin: 400 s

## GST-Nck2
[3]
  Barbed ends: 3.5 nM
  Barbed ends % of max.: 78%
  EC50: 0.007 µM
[4]
  Barbed ends: 2.6 nM
  Barbed ends % of max.: 50%
  EC50: 0.012 µM

## GST-tev-Cdc42 (enzyme)
[3]
  EC50: 0.287 µM
[4]
  EC50: 0.016 µM

## His6 tagged C. albicans FH1-FH2 domain (from UniProt Q5AL52 972-1598)
[2]
  formin concentration to observe saturation of actin polymerization: 300 to 500 nM
